Where two headings read alike, the source gives them in different places.

The EC50 (read off the curve) is the concentration at which the effect is half-maximal. Higher therefore signals weaker potency. As usually defined, the EC50 is the concentration giving half of the maximal effect. Read a low EC50 as a more potent agent. In general, Kd refers to the concentration at which binding is half-saturated.

The target in experiment [1] is T1, Reb-His (Reb, a sub-fragment of Sec8, tagged with a polyhistidine (His) tag).
T1 construct: also called Reb-His peptide
T1 chain: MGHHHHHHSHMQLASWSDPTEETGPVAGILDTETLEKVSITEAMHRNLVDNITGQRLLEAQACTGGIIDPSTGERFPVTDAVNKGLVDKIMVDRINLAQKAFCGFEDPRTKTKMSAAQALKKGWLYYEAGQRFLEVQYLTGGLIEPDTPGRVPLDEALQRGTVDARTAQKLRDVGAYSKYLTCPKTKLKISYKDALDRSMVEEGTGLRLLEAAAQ
As to the kind of experiment: ELISA on REB-HIS, absorbance 650 nm against concentration in nM on a log axis.

The target in experiment [2] is T1, Reb-His (Reb, a sub-fragment of Sec8, …). As to the kind of experiment: ELISA on REB-HIS, absorbance 650 nm; no unit stands beside the number, the concentration axis is in nM. Background: An ELISA detects its analyte on a solid surface through an enzyme-linked reagent.
Experiment [3] has as its target T2, Sec8-His (section 8 (Sec8), an antigenic region of CSP-1, tagged with a polyhistidine (His) tag).
T2 construct: also called Sec8-His antigen
T2 chain: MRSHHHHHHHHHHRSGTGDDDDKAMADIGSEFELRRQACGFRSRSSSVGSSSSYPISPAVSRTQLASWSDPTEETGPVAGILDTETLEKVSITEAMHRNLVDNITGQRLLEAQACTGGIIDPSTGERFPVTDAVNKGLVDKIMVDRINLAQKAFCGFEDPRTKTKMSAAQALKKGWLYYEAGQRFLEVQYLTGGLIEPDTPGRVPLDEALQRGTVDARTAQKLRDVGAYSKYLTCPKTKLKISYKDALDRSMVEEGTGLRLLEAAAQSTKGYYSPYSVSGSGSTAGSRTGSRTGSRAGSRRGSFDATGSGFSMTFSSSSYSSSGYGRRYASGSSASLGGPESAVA
As to the kind of experiment: ELISA, absorbance 650 nm against concentration in nM on a log axis. How it is done:
(§1) The binding of humanized anti-CSP-1 antibody (Ab51) to an antigenic region of CSP-1 called section 8 (Sec8) was measured using ELISA.

The target of experiment [4] is T2, Sec8-His (section 8 (Sec8), an …). In words: ELISA on Sec8-His. How it is done: as §1
Experiment [5] concerns the target T1, Reb-His (Reb, a sub-fragment of Sec8, …). As to the kind of experiment: ELISA on REB-HIS, absorbance 650 nm; no unit stands beside the number, the concentration axis is in nM. How it is done: Furthermore, the binding of Ab51 to a sub-fragment of Sec8, called Reb, was measured using ELISA.
In experiment [6] the target is T2, Sec8-His (section 8 (Sec8), an …). In words: ELISA on Sec8-His (target per paragraph 36), absorbance 650 nm; curve assigned by the marker in the legend.
Experiment [7] has the same target. As to the kind of experiment: ELISA on Sec8-His (target per paragraph 36), absorbance 650 nm; no unit stands beside the number, the concentration axis is in nM; number as printed beside the name, but it fits the circle curve better than the square curve.
Experiment [8] addresses T1, Reb-His (Reb, a sub-fragment of Sec8, …). In words: ELISA on REB-HIS, absorbance 650 nm; no unit stands beside the number, the concentration axis is in nM.
The target of experiment [9] is T2, Sec8-His (section 8 (Sec8), an …). As to the kind of experiment: ELISA on Sec8-His (target per paragraph 36), absorbance 650 nm; no unit stands beside the number, the concentration axis is in nM; number as printed beside the name, but it fits the square curve better than the circle curve.

B1: murine anti-CSP-1 antibody 1D7 (hybridoma clone) (antibody, V domains shown)
VH: EVQLVESGGDLVKPGGSLKLSCAASGFTFSRYGMSWVRQTPDKRLEWVATISIGGTYTYYPDSMKGRFTISRDNAKNTLYLQMSSLKSEDTAMYYCARRGYGNYSYYGMDYWGQGTSVTVSS
VL: DIVMTQAAFSNPVTLGTSASISCRSSKSLLHSNGITYLYWYLQKPGQSPQLLIYQMSNLASGVPDRFSSSGSGTDFTLRISRVEAEDVGVYYCAQNLELPLTFGAGTKLELK
notes: Murine antibody
Take B1: the “EC50 (read off the curve)” value in experiment [1] was approximately 0.4 nM. For the same molecule, the EC50 in [2] stood at 0.365 nM.

B2: humanized anti-CSP-1 antibody, Antibody 51 (Ab51) (antibody, V domains shown)
VH: EVQLVESGGGLVQPGGSLRLSCAASGFTFSRYGMSWVRQAPGKRLEWVATISIGGTYTYYPDSMKGRFTISRDNSKNTLYLQMNSLRAEDTAMYYCARRGYGQYSYYGLDYWGQGTLVTVSS
VL: DIVMTQSALSNPVTLGQSASISCRSSKSLLHSQGITYLYWYLQKPGQSPQLLIYQMSNRASGVPDRFSSSGSGTDFTLKISRVEAEDVGVYYCAQNLELPLTFGQGTKLEIK
notes: also called Antibody Number 51; huZB131
B2: in [3], the “EC50 (read off the curve)” value is approximately 0.4 nM. For the same molecule, in experiment [4], the Kd was 0.441 nM. This molecule also registered an EC50 in experiment [5] of 0.124 nM.

B3: murine anti-CSP-1 antibody 1H11 (antibody, V domains shown)
VH: QIQLVQSGPELKKPGETVKISCKASGYTFTDYSMHWVKQAPGKGLKWMGWINTETGEPTYADDFKGRFAFSLETSASTAYLQINNLKNEDTATYFCAPGGFAYWGQGTLVTVSA
VL: DIVMTQAAPSVPVTPGESVSISCRSSKSLLHSNGNTYLYWFLQRPGQSPQLLIYRMSNLASGVPDRFSGSGSGTAFTLRISRVEAEDVGVYYCMQHLEYPLTFGAGTKLELKR
notes: Murine antibody; also called 1H11B5
In the case of B3, the “EC50 (read off the curve)” value in experiment [6] is approximately 0.1 nM. Moreover, the Kd in experiment [7] came to 0.583 nM. The molecule further gave an EC50 in experiment [8] of 0.531 nM.

B4: antibody-drug conjugate comprising the murine anti-CSP-1 antibody 1H11 and the chemotherapeutic drug SN38 (antibody, V domains shown)
VH: QIQLVQSGPELKKPGETVKISCKASGYTFTDYSMHWVKQAPGKGLKWMGWINTETGEPTYADDFKGRFAFSLETSASTAYLQINNLKNEDTATYFCAPGGFAYWGQGTLVTVSA
VL: DIVMTQAAPSVPVTPGESVSISCRSSKSLLHSNGNTYLYWFLQRPGQSPQLLIYRMSNLASGVPDRFSGSGSGTAFTLRISRVEAEDVGVYYCMQHLEYPLTFGAGTKLELKR
modifications: SN38 (small-molecule drug) is conjugated to the antibody. The linker, the conjugation residues, the chain that carries it and the drug-to-antibody ratio are not stated, and the letters cannot carry it.
notes: also called 1H11-SN38 conjugate
As for B4, the affinity in experiment [9], expressed as Kd, was 0.14 nM. In addition, the “EC50 (read off the curve)” value in experiment [6] is approximately 0.6 nM.
